In assay [1] the test system is MyD88 deficient mouse embryonic fibroblasts. Description: Cytokine synthesis in mouse embryonic fibroblasts from MyD88 deficient mice. Format: cell-based. To be noted: 24 h; FBG 1 μM, PAM3, LPS, TNFα 100 ng/ml, IL-1 5 ng/ml. The source says:
(§1) Homozygous MyD88 deficient mice on a C57BL/6 background were provided by the Sanger Institute (Cambridge, UK). Age matched congenic inbred wild type C57B/L6 mice were obtained from Charles River (Margate, UK). For isolation of mouse embryo fibroblasts one female aged 8-10 weeks was mated with two males aged 8-10 weeks. For isolation of bone marrow derived macrophages mice were female and between 10-12 weeks of age at the time of experimentation.
MEFs express high levels of mRNA of all 9 murine TLRs and are specifically and highly responsive to TLR ligand activation. […] Fibroblasts were cultured at 2×10^4 cells/well in DMEM containing 10% (v/v) FBS and 100 U/ml penicillin/streptomycin in 96-well tissue culture plates for 24 hours before stimulation.
(§2) Cells were incubated for 24 hours at 37° C. with the indicated doses of tenascin-C and recombinant tenascin-C fragments (1.0 μM-1.0 nM). Cells were also stimulated where indicated with LPS (1 ng/ml for human macrophages, 10 ng/ml for human fibroblasts, RA membrane cells and HEKs, 100 ng/ml for MEFS and BMDMs and 10 ng/ml for HEKS), PAM3 (10 ng/ml for human macrophages, human fibroblasts, and HEKs, 100 ng/ml for MEFs and BMDMs), murine IL-1 (5 ng/ml for MEFS) and murine TNF-α (100 ng/ml for MEFS). Unless specifically stated otherwise rough LPS was used for in vitro studies.
(§3) Supernatants were subsequently examined for the presence of the cytokines TNF-α, IL-6, and IL-8 by enzyme-linked immunosorbent assay (ELISA) according to the manufacturer's instructions. Absorbance was read on a spectrophotometric ELISA plate reader (Labsystems Multiscan Biochromic, Vantaa, Finland) and analyzed using the Ascent software program (Thermo Labsystems, Altrincham, UK).

For assay [2], the system named is knee joint of wild type mice. Put plainly: Intra-articular injection of FBG into the knee joint of wild type mice. Format: in vivo. As for the experimental part:
Wild type mice were anesthetized by intraperitoneal injection of 150 μl of Hypnorm diluted 1:10 in sterile water and then injected with 100 ng, 1 or 3 μg FBG in 10 μl of sterile PBS into the right knee joint using a sterile 33-gauge microcannula. Control mice received an injection of 10 μl PBS alone or were not injected.
On days 3 and 7, mice were euthanized, the knee joints were excised and fixed in 10% (volume/volume) buffered formalin, decalcified, with 10% EDTA and processed to paraffin.
Coronal tissue sections (4 μm) were cut at 7 depths throughout the joint; 80 μm apart and stained with hematoxylin and eosin or Safranin-O to assess joint pathology.
Inflammation (the influx of inflammatory cells into synovium (infiltrate) and the joint cavity (exudates), was graded using an arbitrary scale from 0 (no inflammation) to 3 (severe inflammation). Chondrocyte death was determined as the percentage of cartilage area containing empty lacunae in relation to the total area. Cartilage surface erosion was determined as the amount of cartilage lost in relation to the total cartilage area. Bone destruction was determined in 10 different areas of the total knee joint section. Destruction was graded on a scale of 0 (no damage) to 3 (complete loss of bone structure). Histological analysis was performed by an investigator who was blinded to the experimental groups. The mean score for each animal in an experimental group was calculated by averaging the histopathologic scores in at least 5 section depths per joint.

Assay [3] concerns RA synovial membrane cells. Description: Cytokine synthesis in RA synovial membrane cells stimulated with FBG. The class given is cell-based, human. To be noted: FBG 1.0-0.01 μM, 24 h, over spontaneous production.
From the text: RA membrane cells (representing a mixed population of all synovial cell types) were isolated from synovial membranes obtained from patients undergoing joint replacement surgery as previously described (Brennan (1989)). RA synovial fibroblasts were isolated from the mixed population of RA membrane cells as previously described (Brennan (1989)). The study was approved by the local Trust ethics committee (Riverside NHS Research Committee), and waste tissue (synovium after joint replacement surgery) was obtained only after receiving signed informed consent from the patient and anonymyzing the tissue to protect patient identity.
Immediately after isolation, RA membrane cells and macrophages were cultured at 1×10^5 cells/well in RPMI 1640 containing 10% (v/v) FBS and 100 U/ml (Units/ml) penicillin/streptomycin in 96-well tissue culture plates for 24 hours before stimulation. […]
as §3

The subject of assay [4] is TLR2 or TLR4 deficient embryonic fibroblasts and bone marrow derived macrophages. Put plainly: Cytokine synthesis in embryonic fibroblasts and macrophages from TLR2 or TLR4 deficient mice. Format: cell-based, mouse. To be noted: 24 h.
From the text: as §1, with “Homozygous TLR2 and TLR4 deficient mice on a C57BL/6 background (an inbred strain of mice with a black coat) were obtained from B&K Universal (Hull, UK) Hoshino (1999) and Takeuchi (1999). Homozygous” for “Homozygous”
MEFs express high levels of mRNA of all 9 murine TLRs and are specifically and highly responsive to TLR ligand activation. […] MEFs were isolated from d13 embryos harvested from age-matched, pregnant female wild type, TLR2, TLR4 and null mice (as described in Todaro (1963)). Fibroblasts were cultured at 2×10^4 cells/well in DMEM containing 10% (v/v) FBS and 100 U/ml penicillin/streptomycin in 96-well tissue culture plates for 24 hours before stimulation.
BMDMs were derived by aspirating the femurs of age matched female wild type, TLR2 and TLR4 null mice as described in Butler (1999)) and culturing the cells for 7 days in DMEM, 20% (v/v) FBS, 10 ml/L (v/v) antibiotic-antimycotic solution PSA, 50 μM Mercaptoethanol and 10 ng/ml M-CSF. Macrophages were then cultured at 1×10^5 cells/well in DMEM, 20% (v/v) FBS, 10 ml/L (v/v) antibiotic-antimycotic solution PSA, 50 μM β-Mercaptoethanol in 96-well tissue culture plates for 24 hours before stimulation.
as §2, §3

B1: FBG: recombinant fibrinogen-like globe, 227 amino acid globular domain at the C terminal of tenascin-C (protein)
chain: GLLYPFPKDCSQAMLNGDTTSGLYTIYLNGDKAEALEVFCDMTSDGGGWIVFLRRKNGRENFYQNWKAYAAGFGDRREEFWLGLDNLNKITAQGQYELRVDLRDHGETAFAVYDKFSVGDAKTRYKLKVEGYSGTAGDSMAYHNGRSFSTFDKDTDSAITNCALSYKGAFWYRNCHRVNLMGRYGDNNHSQGVNWFHWKGHEHSIQFAEMKLRPSNFRNLEGRRKRA
Regarding B1, the “cytokine synthesis in embryonic fibroblasts with targeted deletion of MyD88” value in assay [1] is listed as “does not stimulate”. In assay [2] (100 ng FBG intra-articular), the joint histology result is listed as “No inflammation or proteoglycan loss”. The joint histology result in assay [2] (1 μg FBG intra-articular, 3 days) is “inflammatory cell infiltration (FIG. 6f), mild synovitis, pannus formation (FIG. 6g) and proteoglycan loss (FIG. 6h) was observed”. In assay [2] (1 μg FBG, 3 days (FIG. 6i)), the “histological quantification: cartilage surface erosion and bone damage” value was “modest amount”; the “histological quantification: cellular infiltrate and exudate and chondrocyte death” value is “high levels”. Besides, the joint histology entry in assay [2] (3 μg FBG intra-articular) is reported as “A similar response”. In addition, the joint inflammation result in assay [2] (intra-articular 100 ng, 1 or 3 μg) was “transient and dose dependent stimulation of joint inflammation”. Also, in assay [3], the “synthesis of IL-6, IL-8 and TNF-α in RA synovial membranes” value is “further enhanced”. In addition, in assay [4], the “cytokine synthesis in cells from TLR2 deficient mice” value is listed as “unaffected” and the “cytokine synthesis in cells from TLR4 deficient mice” value is reported as “does not stimulate”.

Source of the values: patent US20200362024A1, “BIOLOGICAL MATERIALS AND USES THEREOF” (IMPERIAL INNOVATIONS LIMITED, priority 2009, published 2020).
